Reference: article PMC2796841 (Integrative biology : quantitative biosciences from nano to …, 2009)

Tested on: tumor
Details: mouse, in vivo

PAMAM-e9-xPLGLAG-r9-k(Cy5) was tested, and the “time of maximal contrast after injection” value was 48 h.
